Source: paper PMC4357722, “A novel endonuclease that may be responsible for damaged DNA base repair in Pyrococcus furiosus”

Target: T1, PfuEndoQ (PF1551) (Pyrococcus furiosus, UniProt Q8U0N5 1-424)
T1 sequence: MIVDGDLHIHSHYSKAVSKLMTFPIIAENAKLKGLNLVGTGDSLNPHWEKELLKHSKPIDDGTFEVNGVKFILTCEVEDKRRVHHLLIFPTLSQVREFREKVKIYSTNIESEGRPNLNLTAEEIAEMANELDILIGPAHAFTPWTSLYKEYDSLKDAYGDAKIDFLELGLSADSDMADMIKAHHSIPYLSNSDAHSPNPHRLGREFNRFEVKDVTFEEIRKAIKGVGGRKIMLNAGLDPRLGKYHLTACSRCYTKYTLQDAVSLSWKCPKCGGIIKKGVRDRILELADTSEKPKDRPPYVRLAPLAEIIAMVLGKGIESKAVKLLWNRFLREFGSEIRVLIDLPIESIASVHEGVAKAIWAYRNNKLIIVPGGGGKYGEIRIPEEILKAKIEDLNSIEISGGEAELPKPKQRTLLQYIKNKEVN
Assay: EMSA; 1 mM Mg2+; 60 C; EMSA: 50 mM Tris-HCl pH 8.0, 1 mM MgCl2, 1 mM DTT, 0.01% Tween 20, 60 C 10 min, 5 nM DNA, 0-50 nM protein; 4% PAGE in TBE
Settings: protein: recombinant; tags: none (untagged; native stop codon in the reverse primer, pET21d); blunt

B1: 45N dsDNA (normal duplex) (dsDNA)
DNA 1: CGAACTGCCTGGAATCCTGACGACATGTAGCGAACGATCACCTCA
DNA 2: TGAGGTGATCGTTCGCTACATGTCGTCAGGATTCCAGGCAGTTCG
binding result: no binding
